Laboratory results reported in doi:10.1101/636423 (bioRxiv, 2019).

Target: the molecule itself
Assay: native MS

B1: whole intracellular region of rat PTPRZ (rat PTPRZ-ICR) (domain or fragment)
chain: not shown
Which Kd does the source give for B1 here?
Its Kd is roughly 7 µM.

And the “stoichiometry N” value?
The value was 2.
